Results taken from patent US20130034559A1 (AstraZeneca / MedImmune, published 2013).

Key:
[1] = molecular target: T1, extracellular domain of human PD-L2 (R&D Systems, 1224-PL) (human, UniProt Q9BQ51 20-220); test: ELISA, biotinylated IgG1-TM on coated ECD
T1 construct: extracellular domain; Bought
T1 sequence (looked up): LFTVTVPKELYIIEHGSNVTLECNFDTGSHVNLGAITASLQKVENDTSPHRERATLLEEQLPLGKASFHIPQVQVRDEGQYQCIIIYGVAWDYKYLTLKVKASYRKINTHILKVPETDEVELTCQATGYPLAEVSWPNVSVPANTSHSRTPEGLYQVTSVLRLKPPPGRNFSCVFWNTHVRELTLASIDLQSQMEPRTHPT
Procedure: (§1) ELISAs were performed to determine the cross-reactivity of the anti-B7-H1 IgG1-TM antibodies for other immune co-modulatory molecules. […] Murine cross reactivity was also investigated by coating the ECD of murine B7-H1 (R&D Systems, 1019-B7). Biotinylated anti-B7-H1 IgG1-TM diluted at 100 nM in PBS containing 3% dried milk powder, were incubated at room temperature for 2 h to allow binding. Bound biotinylated IgGs were detected with europium N1-labelled streptavidin (Perkin Elmer, 1244-360) at 0.2 ug/mL. […] Primary antibodies were incubated at 5 ug/mL in PBS containing 3% dried milk powder for 2 h at room temperature. Detection was carried out by incubating the secondary antibody anti-mouse IgG Peroxidase conjugate (Sigma, A2554) or anti-rat IgG Peroxidase conjugate (Sigma, A5795) diluted 1:5000 in PBS containing 3% dried milk powder for 1 h at room temperature and subsequent addition of TMB (Sigma, T0440). […] Non-specific binding was determined using wells coated with the IgG1 isotype control at 5 ug/mL. Cross reactivities were calculated at a percent of the specific binding to the antigen relative to human B7-H1.

[2] = molecular target: T2, extracellular domain of human CTLA-4 (R&D Systems, 325-CT) (human, UniProt P16410 36-161); test: ELISA, biotinylated IgG1-TM on coated ECD
T2 construct: extracellular domain; Bought
T2 sequence (looked up): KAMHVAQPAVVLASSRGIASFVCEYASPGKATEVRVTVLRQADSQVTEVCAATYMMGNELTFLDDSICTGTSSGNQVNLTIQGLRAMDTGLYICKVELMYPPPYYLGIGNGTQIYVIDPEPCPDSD
Procedure: as §1

[3] = molecular target: T3, human PD-1/Fc protein (R&D Systems, catalog #1086-PD) (human, UniProt Q15116 25-170); test: ELISA, biotinylated IgG1-TM on coated ECD
T3 construct: extracellular domain; Bought; not shown: Fc portion
T3 sequence (Q15116 25-170): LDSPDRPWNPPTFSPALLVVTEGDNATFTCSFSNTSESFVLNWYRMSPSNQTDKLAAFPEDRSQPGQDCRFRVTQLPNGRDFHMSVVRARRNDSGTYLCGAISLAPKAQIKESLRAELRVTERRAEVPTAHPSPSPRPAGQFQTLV
Procedure: as §1

[4] = molecular target: T4, extracellular domain of human B7-H2 (R&D Systems, 165-B7) (human, UniProt O75144 19-256); test: ELISA, biotinylated IgG1-TM on coated ECD
T4 construct: extracellular domain; Bought
T4 sequence (looked up): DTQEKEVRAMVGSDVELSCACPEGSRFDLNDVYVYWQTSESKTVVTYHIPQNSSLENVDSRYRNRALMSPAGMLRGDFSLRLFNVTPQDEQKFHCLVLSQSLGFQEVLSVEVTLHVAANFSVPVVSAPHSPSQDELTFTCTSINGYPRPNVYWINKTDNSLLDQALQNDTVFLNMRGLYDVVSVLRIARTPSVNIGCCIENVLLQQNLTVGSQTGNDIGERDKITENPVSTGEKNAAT
Procedure: as §1

[5] = molecular target: T5, extracellular domain of human CD28 (R&D Systems, 342-CD) (human, UniProt P10747 19-152); test: ELISA, biotinylated IgG1-TM on coated ECD
T5 construct: extracellular domain; Bought
T5 sequence (P10747 19-152): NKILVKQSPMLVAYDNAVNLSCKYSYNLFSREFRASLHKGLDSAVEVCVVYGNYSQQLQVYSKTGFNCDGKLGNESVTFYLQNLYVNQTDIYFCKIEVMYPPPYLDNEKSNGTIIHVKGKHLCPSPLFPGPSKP
Procedure: as §1

[6] = molecular target: T6, extracellular domain of murine B7-H1 (R&D Systems, 1019-B7) (murine, UniProt Q9EP73 19-239); test: ELISA, biotinylated IgG1-TM on coated murine B7-H1 ECD
T6 construct: extracellular domain; Bought
T6 sequence (Q9EP73 19-239): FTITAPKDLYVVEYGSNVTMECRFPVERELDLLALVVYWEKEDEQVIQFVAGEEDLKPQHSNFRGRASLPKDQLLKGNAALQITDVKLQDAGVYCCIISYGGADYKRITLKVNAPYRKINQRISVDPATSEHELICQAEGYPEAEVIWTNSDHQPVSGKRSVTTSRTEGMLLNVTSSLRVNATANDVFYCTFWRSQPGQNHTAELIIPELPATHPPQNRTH
Procedure: as §1

[7] = molecular target: T7, recombinant monomeric cynomologus B7-H1 FlagHis10 extracellular domain (cynomologus); test: SPR (BIAcore T100), IgG captured via protein G, monomeric cynomologus B7-H1 ECD as analyte, 25 °C, 1:1 model
T7 construct: extracellular domain; also called CYNO B7H1
Procedure: The binding affinity and kinetic parameters of anti-B7-H1 antibodies in the IgG1-TM format to monomeric human and cynomologus B7-H1 were determined by surface plasmon resonance using a BIAcore T100 instrument (BIAcore, Uppsala, Sweden). In brief, experiments were performed at 25° C. using HBS-EP buffer (10 mM HEPES, 150 mM NaCl, 3 mM EDTA, 0.05% v/v surfactant P20) as running buffer. IgGs were affinity captured on the surface of a CM5 sensor chip (BIAcore) via protein G, which was amine coupled onto the CM5 surface to achieve the density of ˜500 Response Units (RU), according to the manufacturer's instructions (BIAapplications Handbook, BIAcore). Recombinant monomeric human or cynomologus B7-H1 FlagHis₁₀ extracellular domains (ECDs) were used as analytes. […] All measurements were baseline corrected by subtracting the sensorgram obtained with the control (activated-deactivated) flow cell, as well as double referenced with blank (zero analyte concentration) injections. Data were analyzed using the T-100 BIAevaluation software package and fitted to a simple 1:1 Langmuir binding model with local Rₘₐₓ and bulk refractive index set to 0. Data were calculated from at least two independent experiments. Mass transport effects were limited by keeping the level of affinity-captured IgGs below 250 RU.

B1: 2.9D10 in the IgG1-TM format (antibody, V domains shown)
VH: EVQLVESGGGLVQPGGSLRLSCAASGFTFSSYWMSWVRQAPGKGLEWVANIKQDGGEQYYVDSVKGRFTISRDNAKNSLYLQMNSLRAEDTAVYYCARDWNYGYYDMDVWGQGTTVTVSS
VL: EIVLTQSPGTLSLSPGERATLSCRASQSVSSNYLAWFQQKPGQAPRLLIFGTSSRATGIPDRFSGSGSGTDFTLTISRLEPEDFAVYYCQQYGSSIFTFGPGTKVDIK
notes: Recombinant human IgG1-TM (IgG1 with L234F, L235E, P331S), kappa; also called 2.9D10 IgG1-TM
- binding result [1]: no binding (tested: 100 nM)
- binding result [2]: no binding (tested: 100 nM)
- binding result [3]: no binding (tested: 100 nM)
- binding result [4]: no binding (tested: 100 nM)
- binding result [5]: no binding (tested: 100 nM)
- binding result [6]: no binding (tested: 100 nM)

B2: 2.14H9OPT (antibody, V domains shown)
VH: EVQLVESGGGLVQPGGSLRLSCAASGFTFSRYWMSWVRQAPGKGLEWVANIKQDGSEKYYVDSVKGRFTISRDNAKNSLYLQMNSLRAEDTAVYYCAREGGWFGELAFDYWGQGTLVTVSS
VL: EIVLTQSPGTLSLSPGERATLSCRASQRVSSSYLAWYQQKPGQAPRLLIYDASSRATGIPDRFSGSGSGTDFTLTISRLEPEDFAVYYCQQYGSLPWTFGQGTKVEIK
notes: Germlined VL; human IgG1-TM (L234F, L235E, P331S), kappa
- binding result [1]: no binding (tested: 100 nM)
- binding result [2]: no binding (tested: 100 nM)
- binding result [3]: no binding (tested: 100 nM)
- binding result [4]: no binding (tested: 100 nM)
- binding result [5]: no binding (tested: 100 nM)
- Kd [7]: 0.367 nM
- binding result [6]: no binding (tested: 100 nM)
